The values below come from the Immune Epitope Database (IEDB).

The target of test [1] is HLA-A*24:02. Briefly: IEDB peptide-MHC binding, purified MHC/competitive/fluorescence; filed as Kd, often an IC50 or EC50 that approximates it; ≥ and ≤ were set here for values at or beyond the usual limits of such assays.
Test [2] concerns the target HLA-C*06:02. Put plainly: IEDB peptide-MHC binding, purified MHC/direct/fluorescence; filed as Kd, often an IC50 or EC50 that approximates it; ≥ and ≤ were set here for values at or beyond the usual limits of such assays.
For test [3], the target named is HLA-A*02:06. Briefly: IEDB peptide-MHC binding, purified MHC/competitive/fluorescence; filed as Kd, often an IC50 or EC50 that approximates it; ≥ and ≤ were set here for values at or beyond the usual limits of such assays. Particulars: source organism: Human immunodeficiency virus 1.
Test [4] has as its target HLA-A*26:01. The test is described as above. Particulars: source organism: Human immunodeficiency virus 1.
In test [5] the target is HLA-A*02:01. Described as above.
Test [6] has as its target HLA-A*02:03. Described as above.
For test [7], the target named is HLA-B*15:01. The test is described as above. Particulars: source organism: Human immunodeficiency virus 1.
The target in test [8] is HLA-A*30:01. The test is described as above. Particulars: source organism: Human immunodeficiency virus 1.
Test [9] has as its target HLA-B*39:01. The test is described as above.
Test [10] deals with HLA-A*26:03. The test is described as above. To be noted: source organism: Human immunodeficiency virus 1.
The target in test [11] is HLA-A*24:02. Put plainly: IEDB peptide-MHC binding, purified MHC/direct/fluorescence; filed as Kd, often an IC50 or EC50 that approximates it; ≥ and ≤ were set here for values at or beyond the usual limits of such assays. Particulars: source organism: Giardia lamblia ATCC 50803.
The target in test [12] is HLA-C*04:01. The test is described as above.
Test [13] addresses HLA-A*02:01. Put plainly: IEDB peptide-MHC binding, cellular MHC/competitive/fluorescence; ≥ and ≤ were set here for values at or beyond the usual limits of such assays.
Test [14] addresses HLA-B*45:06. Put plainly: IEDB peptide-MHC binding, purified MHC/competitive/fluorescence; filed as Kd, often an IC50 or EC50 that approximates it; ≥ and ≤ were set here for values at or beyond the usual limits of such assays. Particulars: source organism: human gammaherpesvirus 4.
Test [15] has as its target HLA-B*27:20. Described as above. To be noted: source organism: human gammaherpesvirus 4.
Test [16] addresses HLA-C*04:01. The test is described as above. To be noted: source organism: human gammaherpesvirus 4.
Test [17] addresses HLA-B*15:42. The description is as above. Particulars: source organism: human gammaherpesvirus 4.
In test [18] the target is HLA-B*08:01. The test is described as above. To be noted: source organism: Vibrio cholerae MO10.
For test [19], the target named is HLA-A*31:01. Described as above. Particulars: source organism: Vibrio cholerae MO10.
Test [20] concerns the target HLA-B*15:17. The test is described as above. To be noted: source organism: Vibrio cholerae MO10.
Test [21] concerns the target HLA-A*03:01. The test is described as above. To be noted: source organism: Vibrio cholerae MO10.
Test [22] addresses HLA-B*40:01. Briefly: IEDB peptide-MHC binding, purified MHC/direct/fluorescence; filed as Kd, often an IC50 or EC50 that approximates it; ≥ and ≤ were set here for values at or beyond the usual limits of such assays. To be noted: source organism: Vibrio cholerae.
Test [23] has as its target HLA-A*23:01. The test is described as above. Particulars: source organism: Vibrio cholerae V52.
Test [24] concerns the target HLA-B*48:01. The test is described as above. Particulars: source organism: Vibrio cholerae.
The target of test [25] is HLA-A*01:01. The description is as above. Particulars: source organism: Vibrio cholerae.
The target in test [26] is HLA-B*51:01. The test is described as above. Particulars: source organism: Vibrio cholerae V52.
Test [27] addresses HLA-B*44:02. The description is as above. To be noted: source organism: Vibrio cholerae V52.
The target of test [28] is HLA-B*15:09. Described as above. To be noted: source organism: Vibrio cholerae V52.
The target in test [29] is HLA-B*57:01. Described as above. To be noted: source organism: Vibrio cholerae.
The target in test [30] is HLA-B*46:01. Described as above. To be noted: source organism: Vibrio cholerae.
Test [31] has as its target HLA-A*02:19. The description is as above. To be noted: source organism: Vibrio cholerae V52.
Test [32] concerns the target HLA-B*58:01. Described as above. Particulars: source organism: Vibrio cholerae.
The target of test [33] is HLA-B*15:01. The description is as above. Particulars: source organism: Vibrio cholerae V52.
The target of test [34] is HLA-B*38:01. Described as above. Particulars: source organism: Vibrio cholerae V52.
In test [35] the target is HLA-A*29:02. The description is as above. To be noted: source organism: Vibrio cholerae V52.
Test [36] deals with HLA-A*30:01. The description is as above. Particulars: source organism: Vibrio cholerae V52.
Test [37] addresses HLA-B*27:05. Described as above. To be noted: source organism: Vibrio cholerae.
The target of test [38] is HLA-A*02:12. The description is as above. To be noted: source organism: Vibrio cholerae V52.
Test [39] addresses HLA-A*11:01. The test is described as above. To be noted: source organism: Vibrio cholerae.
Test [40] concerns the target HLA-A*69:01. The test is described as above. Particulars: source organism: Vibrio cholerae.
Test [41] addresses HLA-A*24:03. Described as above. To be noted: source organism: Vibrio cholerae V52.
In test [42] the target is HLA-B*18:01. The test is described as above. To be noted: source organism: Vibrio cholerae V52.
In test [43] the target is HLA-C*15:02. The description is as above. Particulars: source organism: Giardia lamblia ATCC 50803.
Test [44] addresses HLA-C*14:02. The test is described as above. To be noted: source organism: Giardia lamblia ATCC 50803.
[45] abbreviates: source organism: Bacillus anthracis str. A0488.
Setting [46] is: source organism: Human immunodeficiency virus 1.
Setting [47] is: source organism: Giardia lamblia ATCC 50803.
Where [48] appears, read: source organism: Vibrio cholerae MO10.

Broadly, the Kd is the concentration at which binding is half-saturated. Take IYPFHVQKI: the figures for the Kd in test [1] (setting [45]) and in [2] (setting [45]) were at most 0.0001 µM and 0.816 µM, respectively.
KLKSLYNTV: the dissociation constant Kd in test [3] was 0.0174 µM; in test [4], at least 20 µM; in [5] (setting [46]), 0.0261 µM; in [6] (setting [46]) it was 0.0131 µM; in test [7], at least 20 µM; in test [8], 0.0013 µM. Further, the Kd in test [9] (setting [46]) and in [10] was at least 20 µM throughout.
As for YWLNTPFLV, the Kd is at most 0.001 µM in test [11] and at least 20 µM in test [12] (setting [47]).
In general, IC50 refers to the concentration that gives 50% inhibition. Higher therefore signals lower potency. As to AQLLTEFAI, the IC50 in test [13] (source organism: Mycobacterium tuberculosis) turned out to be 25 µM.
RRYRRIYDL: the equilibrium dissociation constant (Kd) was at least 5 µM in [14]; at most 0.0001 µM in [15]; at least 5 µM in test [16]; at least 5 µM in test [17]; 0.017 µM in [2] (source organism: human gammaherpesvirus 4).
Take EVNAHIHTM: the dissociation constant Kd in test [18] is at least 20 µM; in [19] it was at least 20 µM; in test [20], at least 20 µM; in test [5] (setting [48]) it was at least 20 µM; in test [6] (setting [48]), at least 20 µM; in test [9] (setting [48]), 1.33 µM. Moreover, the Kd in test [21], in test [22], in test [23], in [24], in [25] and in test [26] was at least 20 µM throughout. Also, the dissociation constant (Kd) in [27], in [28], in test [29], in test [30], in test [31] and in test [32] was at least 20 µM in each case. Also, the dissociation constant (Kd) in test [33], in [34], in test [35], in test [36], in [37] and in test [38] was at least 20 µM in each case. Moreover, the Kd in test [39] is at least 20 µM; in test [40], at most 0.001 µM; in test [41], at least 20 µM; in [42], 1.84 µM.
SPSVDKARAEL showed an IC50 in [13] (source organism: Homo sapiens) of at least 200 µM.
For the sequence RYYLSFFHI, the Kd in test [1] (setting [47]) was 0.0014 µM; in test [43], at least 20 µM; in test [2] (setting [47]), at least 20 µM; in [44] it was 0.03 µM.
As to KYFIPVIEI, the Kd in test [12] (source organism: Homo sapiens) was at least 20 µM.
